{
  "source": "paper PMC5158201",
  "origin": "cited, not measured here",
  "molecular_target": "decoy IL-1 receptor (IL-1RII) (Homo sapiens) (UniProt P27930)",
  "sequence (P27930 14-398)": "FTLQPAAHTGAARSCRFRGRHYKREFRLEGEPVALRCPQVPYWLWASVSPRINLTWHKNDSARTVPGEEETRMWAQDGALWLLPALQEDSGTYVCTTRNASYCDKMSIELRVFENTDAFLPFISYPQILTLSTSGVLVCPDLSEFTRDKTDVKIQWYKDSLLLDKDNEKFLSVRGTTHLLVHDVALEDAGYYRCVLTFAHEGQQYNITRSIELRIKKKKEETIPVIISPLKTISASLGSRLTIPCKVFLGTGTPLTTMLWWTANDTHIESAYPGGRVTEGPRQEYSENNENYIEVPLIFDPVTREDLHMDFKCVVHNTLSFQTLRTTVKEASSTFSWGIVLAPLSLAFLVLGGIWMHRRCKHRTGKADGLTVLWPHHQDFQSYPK",
  "data": [
    {"substance": "IL-1α (from UniProt P01583)", "values": [
      {"measurement": "Kd", "value": 0.03, "unit": "nM"}
    ]}
  ]
}
